This passage reports IC50 results from patent US7910549.

The target of the experiment is monoclonal antibody M75 (MAb M75), secreted by hybridoma VU-M75, ATCC HB 11128. As to the kind of experiment: competition ELISA (peptide against immobilized GST-MN for M75). A general note: An ELISA detects its analyte on a solid surface through an enzyme-linked reagent.

B1: oligopeptide … (aa 51-72) [SEQ ID NO: 104] (peptide)
peptide: GGSSGEDDPLGEEDLPSEEDSP
B1: the IC50 came to 1 ng/mL.

As usually defined, the IC50 is the concentration needed to halve the response being measured. Lower therefore signals inhibition by little substance.
